B1: Putative E3 ubiquitin-protein ligase UNKL (Homo sapiens), Q9H9P5 (parent)
chain: MPSVSKAAAAALSGSPPQTEKPTHYRYLKEFRTEQCPLFSQHKCAQHRPFTCFHWHFLNQRRRRPLRRRDGTFNYSPDVYCSKYNEATGVCPDGDECPYLHRTTGDTERKYHLRYYKTGTCIHETDARGHCVKNGLHCAFAHGPLDLRPPVCDVRELQAQEALQNGQLGGGEGVPDLQPGVLASQAMIEKILSEDPRWQDANFVLGSYKTEQCPKPPRLCRQGYACPHYHNSRDRRRNPRRFQYRSTPCPSVKHGDEWGEPSRCDGGDGCQYCHSRTEQQFHPESTKCNDMRQTGYCPRGPFCAFAHVEKSLGMVNEWGCHDLHLTSPSSTGSGQPGNAKRRDSPAEGGPRGSEQDSKQNHLAVFAAVHPPAPSVSSSVASSLASSAGSGSSSPTALPAPPARALPLGPASSTVEAVLGSALDLHLSNVNIASLEKDLEEQDGHDLGAAGPRSLAGSAPVAIPGSLPRAPSLHSPSSASTSPLGSLSQPLPGPVGSSAMTPPQQPPPLRSEPGTLGSAASSYSPLGLNGVPGSIWDFVSGSFSPSPSPILSAGPPSSSSASPNGAELARVRRQLDEAKRKIRQWEESWQQVKQVCDAWQREAQEAKERARVADSDRQLALQKKEEVEAQVIFQLRAKQCVACRERAHGAVLRPCQHHILCEPCAATAPECPYCKGQPLQW

Variants of: B1
Settings: with ubi4p_yeast UBI4, P0CG63
ubi4p_yeast UBI4, P0CG63, sequence (P0CG63 whole entry): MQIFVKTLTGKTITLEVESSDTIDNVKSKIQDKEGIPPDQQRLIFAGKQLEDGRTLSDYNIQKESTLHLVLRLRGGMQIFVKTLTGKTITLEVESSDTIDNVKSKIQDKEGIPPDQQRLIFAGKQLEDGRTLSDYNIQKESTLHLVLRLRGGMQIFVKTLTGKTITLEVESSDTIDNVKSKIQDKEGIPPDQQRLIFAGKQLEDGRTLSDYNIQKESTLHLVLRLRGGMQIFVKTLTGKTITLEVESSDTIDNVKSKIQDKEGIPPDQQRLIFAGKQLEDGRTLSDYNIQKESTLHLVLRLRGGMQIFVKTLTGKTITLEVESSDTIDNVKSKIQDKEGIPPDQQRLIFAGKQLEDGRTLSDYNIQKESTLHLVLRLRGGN

Variant	effect of a mutation on the interaction
C639A	decreasing interaction
C670A	decreasing interaction

Source: IntAct's records for PubMed 20148946
